One substance from article PMC8154523 can be followed below.

Holding throughout (experiment): NMR
What all share (conditions): 30 °C

The test system of data set [1] is Asp32 (position 32, […]).
The subject of data set [2] is Asp77 (position 77, […]).
The test system of data set [3] is Glu73 (position 73, […]).
The subject of data set [4] is Glu28 (position 28, […]).
Data set [5] deals with Glu43 (position 43, […]).
The test system of data set [6] is Asp46 (position 46, […]).
[7] abbreviates: 50 mM NaCl (plus 20 mM phosphate and 5 mM polyanionic sclx8), D-fructose-bound RSL in the presence of 5 mM sclx8 (binding has mM affinity and is pH dependent).
[8] abbreviates: 50 mM NaCl (plus 20 mM phosphate), D-fructose-bound RSL, no sclx8 (0 mM).

Bounds are passed on as bounds.

One may read the pKa as the negative logarithm of the acid dissociation constant.

Turning to “Ralstonia solanacearum lectin (RSL), fucose-binding lectin (Ralstonia solanacearum)”, the pKa in data set [1] (setting [7]) is 3.7±0.01; in data set [1] (setting [8]), 1.7±0.02; in data set [2] (setting [7]), < 2.0; in data set [2] (setting [8]), < 2.0; in data set [3] (setting [7]), < 2.0; in data set [3] (setting [8]), < 2.0. In addition, the pKa in data set [4] (setting [7]) is recorded as < 2.0; in data set [4] (setting [8]), < 2.0; in data set [5] (setting [7]), 6.2±0.01; in data set [5] (setting [8]) it was 5.9±0.01; in data set [6] (setting [7]) it was 4.2±0.01; in data set [6] (setting [8]), 3.5±0.01.
